The values below come from US8236761B2, “C-Met receptor regulation by angiotensin IV (AT4) receptor ligands” (Washington State University Research Foundation, priority 2006, dated 2012).

Non-standard residues stand in square brackets, D forms with d. No end group written: not given here. Nle = CCCC[C@H](N)C(=O)O

Assay [1] has as its target T1, c-Met (Homo sapiens, UniProt P08581). Nature of the assay: HGF-induced Met/Gab1 association in HUVEC (IP/IB). The format is cell-based. To be noted: 5 minutes treatment. The procedure:
FIG. 16 depicts inhibition of angiogenesis by Norleual (Compound 2, SEQ ID NO:43) in the mouse aortic ring assay. Rings were incubated in EGM-2 media (Cambrex) with (n=8) or without (n=6) 100 pM Norleual for four days. Digital photos of the rings were taken on day four. FIG. 16A: Quantification of aortic ring angiogenesis. Areas covered by angiogenic sprouts were quantified from day four ring photos, control (−) and Norelual treated (+) (p-value=0.012* and error bars indicate ±SEM). FIG. 16B: HUVECs were treated for 5 minutes with HGF and/or Norleual at indicated concentrations. Lysates were IP with anti-c-Met and IB with anti-c-Met or Gab1.
Immunoprecipitation and Western blotting. Cells were serum starved for two hours in DMEM before treatment. Cells were harvested using RIPA lysis buffer (Upstate Biotechnol. Inc., Lake Placid, N.Y.) with phosphatase inhibitor cocktails 1 and 2 (Sigma, St Louis, Mo., USA). Protein concentration was determined using the BCA assay (Pierce, Rockford, Ill., USA). Lysates were incubated with antibody overnight at 4° C. Immunoprecipitation controls received mouse non-specific Ig (Upstate). […] The film images were digitized and analyzed using TotalLab® software (AmershamPharmacia/GE HealthCare, Piscataway, N.J.).
See Example 1 for Materials and Methods. Angiogenesis was evaluated with the ex vivo mouse aortic ring assay in the presence and absence of Norleual. […]

In assay [2] the target is T1, c-Met. Kind of assay: Immunoprecipitation/Western blot of HGF-dependent c-Met and Gab1 phosphorylation and association in HEK293 cells. The format is cell-based. Also on record: host or cells: HEK293. On the procedure: (FIG. 5A) HEK293 cells were treated for 10 minutes with HGF at indicated concentrations. Lysates were immunoprecipitated (IP) with anti-c-Met antibody (DO-24) and immunoblotted (IB) with anti-c-Met or anti-phospho-tyrosine (06-427) antibody. (FIG. 5B) HEK293 cells were treated for 10 minutes with HGF and/or Norleual. Lysates were IP with anti-c-Met (DO-24) and IB with anti-c-Met (DQ-13) or anti-phospho-tyrosine (HAM 1676). (FIG. 5C) HEK293 lysates were IP with anti-c-Met (DO-24) and IB with anti-Gab1. (FIG. 5D) HEK 293 lysates were IP with anti-Gab1 and IB with anti-Gab1 or anti-phospho-tyrosine (HAM 1676). (FIGS. 5E, 5F, 5G) Relative amounts (normalized to % total c-Met in IP) of quantified IP/IB band intensities for control, 110 pM HGF-, 110 pM HGF and 20 pM Norleual-, and 20 pM Norleual-treated HEK293 cells for phospho-c-Met (FIG. 5E, n=4), phospho-Gab1 (FIG. 5F, n=4), and c-Met associated Gab1 (FIG. 5G, n=3). Error bars indicate ±SD.
HEK293 cells were treated for 10 minutes with HGF and/or Norleual at the indicated concentrations. Lysates were IP with anti-c-Met (DO-24, Millipore/Upstate, Billerica, Mass.) and IB with anti-c-Met (DQ-13, Millipore/Upstate) or anti-phosphotyrosine (HAM1676, lot JLB03, R&D Systems, Inc., Minneapolis, Minn.).
Immunoprecipitation and Western blotting. Cells were serum starved for two hours in DMEM before treatment. Cells were harvested using RIPA lysis buffer (Upstate Biotechnol. Inc., Lake Placid, N.Y.) with phosphatase inhibitor cocktails 1 and 2 (Sigma, St Louis, Mo., USA). Protein concentration was determined using the BCA assay (Pierce, Rockford, Ill., USA). Lysates were incubated with antibody overnight at 4° C. Immunoprecipitation controls received mouse non-specific Ig (Upstate). Proteins were captured with protein-A agarose (Upstate) and were washed with PBS. Proteins were resolved using SDS-PAGE electrophoresis (Criterion, BioRad, Hercules, Calif., USA), transferred to nitrocellulose, and incubated with appropriate antibodies. Proteins were visualized using the Supersignal West Pico Chemiluminescent Substrate system (Pierce). The film images were digitized and analyzed using TotalLab® software (AmershamPharmacia/GE HealthCare, Piscataway, N.J.).
Whether the interaction of Norleual with the c-Met receptor had functional consequences regarding c-Met signaling was next investigated by determining whether Norleual could alter the phosphorylation status of cellular protein tyrosine phosphate (FIG. 4) and more specifically, of c-Met (i.e., c-Met activation), and also whether Norleual could modulate Gab1 association with c-Met. Human embryonic kidney HEK293 cells were activated by HGF in the presence or absence of Norleual. Solubilized membranes were immunoprecipitated (IP) with an anti-c-Met antibody and immunoblotted (IB) for total c-Met, anti-phospho-tyrosine to detect the activated form of c-Met, and anti-Gab1 to detect c-Met/Gab1 association. […] To confirm these findings, treated HEK293 lysates were precipitated with anti-Gab1 and blotted for total Gab1 and phospho-Gab1, its activated form. Again, Norleual inhibited HGF-induced Gab1 phosphorylation (FIGS. 5D, […]).
On the technique in general: Immunoblotting shows a protein as a band on a membrane.

For assay [3], the system named is +SA WAZ-2T mouse mammary carcinoma cells. Kind of assay: Orthotopic +SA WAZ-2T mammary carcinoma model. The format is in vivo, Balb/c mice. The procedure:
This Example describes Norleaul effects in a mouse model of breast cancer in which animals were orthotopically injected with +SA WAZ-2T mouse mammary carcinoma cells (5×10^5) into the mammary fat pad of 11-week old female Balb/c mice. The +SA cell line was chosen due to its aggressive nature and ability to form highly vascularized tumors with 100% incidence per injection (Danielson et al., 1986). NORLEUAL (SEQ ID NO:43) was delivered via Elvax slow release pellets at doses of 0.3 mg/pellet, 0.03 mg/pellet, and 0.003 mg/pellet, implanted into the mammary glands immediately prior to tumor cell injection. These pellets provided an estimated continuous release of NORLEUAL at doses equivalent to 37.5 μg/kg/day, 3.75 μg/kg/day, and 0.375 μg/kg/day, respectively (based on in vitro release assays of pellets, data not shown). […] Tumor growth was monitored every 2-3 days, based on caliper measurements of the two longest diameters and calculating tumor volume.

T1 sequence (P08581 308-1390 limits assumed): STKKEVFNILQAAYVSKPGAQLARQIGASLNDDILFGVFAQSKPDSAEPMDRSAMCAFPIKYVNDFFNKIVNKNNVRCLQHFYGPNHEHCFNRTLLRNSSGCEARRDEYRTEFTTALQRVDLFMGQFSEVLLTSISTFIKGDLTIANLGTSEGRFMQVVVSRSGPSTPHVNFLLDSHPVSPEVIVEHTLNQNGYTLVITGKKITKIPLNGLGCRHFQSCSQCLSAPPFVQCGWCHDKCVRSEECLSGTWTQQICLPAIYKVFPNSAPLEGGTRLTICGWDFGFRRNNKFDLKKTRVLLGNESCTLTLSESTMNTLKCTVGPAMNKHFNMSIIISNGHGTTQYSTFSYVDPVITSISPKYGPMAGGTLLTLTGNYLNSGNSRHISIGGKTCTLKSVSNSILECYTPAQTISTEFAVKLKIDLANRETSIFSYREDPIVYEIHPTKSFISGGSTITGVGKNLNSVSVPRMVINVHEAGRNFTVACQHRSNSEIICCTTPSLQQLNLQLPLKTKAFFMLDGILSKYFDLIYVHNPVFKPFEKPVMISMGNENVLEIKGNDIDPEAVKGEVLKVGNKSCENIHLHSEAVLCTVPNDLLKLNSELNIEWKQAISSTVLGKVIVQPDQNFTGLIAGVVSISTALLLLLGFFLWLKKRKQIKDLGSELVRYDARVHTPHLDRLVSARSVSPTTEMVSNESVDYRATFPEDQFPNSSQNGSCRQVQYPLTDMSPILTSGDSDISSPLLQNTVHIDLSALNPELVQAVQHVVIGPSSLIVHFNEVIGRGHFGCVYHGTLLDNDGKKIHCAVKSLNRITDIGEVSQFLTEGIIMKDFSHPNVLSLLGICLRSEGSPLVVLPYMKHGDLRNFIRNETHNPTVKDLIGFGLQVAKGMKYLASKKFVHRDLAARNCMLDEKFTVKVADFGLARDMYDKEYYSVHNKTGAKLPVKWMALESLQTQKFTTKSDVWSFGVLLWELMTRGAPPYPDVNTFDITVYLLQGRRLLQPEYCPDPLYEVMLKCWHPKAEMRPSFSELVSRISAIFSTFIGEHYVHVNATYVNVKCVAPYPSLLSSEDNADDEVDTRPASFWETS
T1 sequence (P08581 25-307 limits assumed): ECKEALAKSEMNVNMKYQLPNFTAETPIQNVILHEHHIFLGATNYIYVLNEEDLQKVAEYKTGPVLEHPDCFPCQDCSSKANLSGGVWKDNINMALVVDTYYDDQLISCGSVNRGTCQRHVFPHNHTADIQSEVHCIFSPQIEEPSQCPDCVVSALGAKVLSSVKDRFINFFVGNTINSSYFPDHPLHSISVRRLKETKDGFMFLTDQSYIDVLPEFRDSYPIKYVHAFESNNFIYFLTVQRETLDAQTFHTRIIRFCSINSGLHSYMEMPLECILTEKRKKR

On to “Nle-Tyr-Leu-ψ-His-Pro-Phe ([Nle]YLHPF; also: reduced peptide bond psi(CH2NH2) between Leu and His) [Norleual]”, for which the “HGF-induced Met/Gab1 association in HUVEC” value in assay [1] was “inhibited”. Moreover, the “HGF-initiated association between Gab1 and c-Met” value in assay [2] (HEK293 cells) was “significantly reduced”. Moreover, the “c-Met phosphorylation, compound applied alone” value in assay [2] (HEK293 cells, 10 minutes, no HGF) is “did not alter”. Also, in assay [2] (HEK293 cells, Norleual 20 pM, 110 pM HGF), the “HGF-dependent Gab1 phosphorylation (IP anti-c-Met)” value is “significantly reduced”. Further, the “HGF-dependent c-Met phosphorylation” value in assay [2] (HEK293 cells, Norleual 20 pM, 110 pM HGF, 10 minutes) is “significantly reduced”. Further, the “HGF-induced Gab1 phosphorylation (IP anti-Gab1)” value in assay [2] (HEK293 lysates precipitated with anti-Gab1) was “inhibited”. This substance also displayed a Tumor volume in assay [3] (0.003 mg/pellet, n=6) of 112.7±61 mm^3. For the same substance, the “Tumor mean vessel count/high power field (Factor VIII staining)” value in assay [3] (0.3 mg/pellet, n=5, control 27.8±3) was found to be 3.0±0.9. Also, the “Delay in onset of palpable tumor mass” value in assay [3] (0.3 mg/pellet, n=6, control 7 day lag) is “up to 21 days”. Besides, in assay [3] (most effective dose, 0.3 mg/pellet), the “Inhibition of tumor volume compared to control” value is listed as 97%. In addition, the “Visible vascularization of tumors removed at conclusion” value in assay [3] (treated tumors) is listed as “total lack of visible vascularization”.
